This is an account of results in doi:10.1101/434902 (bioRxiv, 2018).

Read-outs that look alike come from different tables or passages of the source.

Holding throughout (experiment): cryo-EM structure
Data set [1] concerns the molecule itself.
Data set [2] deals with the molecule itself. This is another data set of the same source.
Data set [3] deals with bovine calmodulin (bovine, UniProt P62157 1-149).

B1: rabbit TRPV5 with a C-terminal truncation (1-660) (domain or fragment)
chain: MGACPPKAKGPWAQLQKLLISWPVGEQDWEQYRDRVNMLQQERIRDSPLLQAAKENDLRLLKILLLNQSCDFQQRGAVGETALHVAALYDNLEAATLLMEAAPELAKEPALCEPFVGQTALHIAVMNQNLNLVRALLARGASVSARATGAAFRRSPHNLIYYGEHPLSFAACVGSEEIVRLLIEHGADIRAQDSLGNTVLHILILQPNKTFACQMYNLLLSYDEHSDHLQSLELVPNHQGLTPFKLAGVEGNTVMFQHLMQKRKHVQWTCGPLTSTLYDLTEIDSWGEELSFLELVVSSKKREARQILEQTPVKELVSFKWKKYGRPYFCVLASLYILYMICFTTCCIYRPLKLRDDNRTDPRDITILQQKLLQEAYVTHQDNIRLVGELVTVTGAVIILLLEIPDIFRVGASRYFGQTILGGPFHVIIITYASLVLLTMVMRLTNMNGEVVPLSFALVLGWCSVMYFARGFQMLGPFTIMIQKMIFGDLMRFCWLMAVVILGFASAFHITFQTEDPNNLGEFSDYPTALFSTFELFLTIIDGPANYSVDLPFMYCITYAAFAIIATLLMLNLFIAMMGDTHWRVAQERDELWRAQVVATTVMLERKMPRFLWPRSGICGYEYGLGDRWFLRVENHHDQNPLRVLRYVEAFKCSDKEDGQ
As for B1, the stoichiometry N – broadly, the number of molecules, sites or subunits per partner or assembly – in data set [1] came out at 4.

B2: rabbit TRPV5 full length channel (1-730) (natural protein)
chain: MGACPPKAKGPWAQLQKLLISWPVGEQDWEQYRDRVNMLQQERIRDSPLLQAAKENDLRLLKILLLNQSCDFQQRGAVGETALHVAALYDNLEAATLLMEAAPELAKEPALCEPFVGQTALHIAVMNQNLNLVRALLARGASVSARATGAAFRRSPHNLIYYGEHPLSFAACVGSEEIVRLLIEHGADIRAQDSLGNTVLHILILQPNKTFACQMYNLLLSYDEHSDHLQSLELVPNHQGLTPFKLAGVEGNTVMFQHLMQKRKHVQWTCGPLTSTLYDLTEIDSWGEELSFLELVVSSKKREARQILEQTPVKELVSFKWKKYGRPYFCVLASLYILYMICFTTCCIYRPLKLRDDNRTDPRDITILQQKLLQEAYVTHQDNIRLVGELVTVTGAVIILLLEIPDIFRVGASRYFGQTILGGPFHVIIITYASLVLLTMVMRLTNMNGEVVPLSFALVLGWCSVMYFARGFQMLGPFTIMIQKMIFGDLMRFCWLMAVVILGFASAFHITFQTEDPNNLGEFSDYPTALFSTFELFLTIIDGPANYSVDLPFMYCITYAAFAIIATLLMLNLFIAMMGDTHWRVAQERDELWRAQVVATTVMLERKMPRFLWPRSGICGYEYGLGDRWFLRVENHHDQNPLRVLRYVEAFKCSDKEDGQEQLSEKRPSTVESGMLSRASVAFQTPSLSRTTSQSSNSHRGWEILRRNTLGHLNLGLDLGEGDGEEVYHF
Regarding B2, the “stoichiometry N” value in data set [2] is 4. Besides, the binding result in data set [3] is recorded as “binds”.

B3: full length TRPV5 with a W583A point mutation (natural protein)
chain: MGACPPKAKGPWAQLQKLLISWPVGEQDWEQYRDRVNMLQQERIRDSPLLQAAKENDLRLLKILLLNQSCDFQQRGAVGETALHVAALYDNLEAATLLMEAAPELAKEPALCEPFVGQTALHIAVMNQNLNLVRALLARGASVSARATGAAFRRSPHNLIYYGEHPLSFAACVGSEEIVRLLIEHGADIRAQDSLGNTVLHILILQPNKTFACQMYNLLLSYDEHSDHLQSLELVPNHQGLTPFKLAGVEGNTVMFQHLMQKRKHVQWTCGPLTSTLYDLTEIDSWGEELSFLELVVSSKKREARQILEQTPVKELVSFKWKKYGRPYFCVLASLYILYMICFTTCCIYRPLKLRDDNRTDPRDITILQQKLLQEAYVTHQDNIRLVGELVTVTGAVIILLLEIPDIFRVGASRYFGQTILGGPFHVIIITYASLVLLTMVMRLTNMNGEVVPLSFALVLGWCSVMYFARGFQMLGPFTIMIQKMIFGDLMRFCWLMAVVILGFASAFHITFQTEDPNNLGEFSDYPTALFSTFELFLTIIDGPANYSVDLPFMYCITYAAFAIIATLLMLNLFIAMMGDTHARVAQERDELWRAQVVATTVMLERKMPRFLWPRSGICGYEYGLGDRWFLRVENHHDQNPLRVLRYVEAFKCSDKEDGQEQLSEKRPSTVESGMLSRASVAFQTPSLSRTTSQSSNSHRGWEILRRNTLGHLNLGLDLGEGDGEEVYHF
As for B3, the “stoichiometry N” value in data set [1] is 4.
